Legend:
[1] = target: Nicotine oxidoreductase (NicA2) (Pseudomonas putida S16) (UniProt F8G0P2); test: stopped-flow absorbance spectrophotometry
NicA2 = target: T1, NicA2 (Pseudomonas putida, UniProt F8G0P2); test: biochemical
T1 sequence (F8G0P2 1-482): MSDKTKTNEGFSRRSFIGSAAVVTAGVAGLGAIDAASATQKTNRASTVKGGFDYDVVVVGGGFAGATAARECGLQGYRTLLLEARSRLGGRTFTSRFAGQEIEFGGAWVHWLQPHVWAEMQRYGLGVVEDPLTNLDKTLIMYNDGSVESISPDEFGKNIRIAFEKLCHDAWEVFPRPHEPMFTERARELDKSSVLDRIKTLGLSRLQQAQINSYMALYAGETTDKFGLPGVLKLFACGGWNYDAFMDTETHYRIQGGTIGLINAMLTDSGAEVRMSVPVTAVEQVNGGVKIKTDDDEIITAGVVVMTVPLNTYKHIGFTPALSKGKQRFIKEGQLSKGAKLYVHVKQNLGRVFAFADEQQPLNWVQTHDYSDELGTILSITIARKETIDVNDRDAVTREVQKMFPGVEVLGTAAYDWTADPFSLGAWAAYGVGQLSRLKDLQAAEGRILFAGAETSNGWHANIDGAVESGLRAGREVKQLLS

Row | Compound | bimolecular rate constant (kon), first phase, N-methylmyosmine-bound NicA2 [1] | bimolecular rate constant (kon), second phase, N-methylmyosmine-bound NicA2 [1] | kon, first phase (CycNox with NicA2-Flred) [1] | Kd (NicA2)
1 | CycN (cytochrome c of Pseudomonas putida S16) (natural protein) | 140000 M⁻¹ s⁻¹ | 77000 M⁻¹ s⁻¹ | 1e+06 M⁻¹ s⁻¹ | –
2 | c1cncc(C2=NCCC2)c1 [myosmine] | – | – | – | 268 ± 3 µM

From PMC7904663 (Nature chemical biology, 2021)
